Results taken from patent US20250313631A1.
One block for each substance: values may come before it.

Assays:
[1] = biological target: human VISTA expressed on cells (human) (UniProt Q9H7M9); experiment: flow cytometry, FITC-A; HEK293 VISTA O/E cells (unstained cells: MFI 0.12)
[2] = biological target: recombinant rat VISTA (His-tagged) (rat); experiment: ELISA, plate coated with rat VISTA
[3] = biological target: recombinant cynomolgus macaque VISTA (His-tagged) (cynomolgus macaque); experiment: ELISA, plate coated with cyno VISTA
[4] = biological target: recombinant human VISTA (His-tagged) (human) (UniProt Q9H7M9); experiment: ELISA, plate coated with human VISTA
[5] = biological target: recombinant mouse VISTA (His-tagged) (mouse) (UniProt Q9D659); experiment: ELISA, plate coated with mouse VISTA
Chain of recombinant mouse VISTA (His-tagged) (mouse) (Q9D659 33-191 limits assumed): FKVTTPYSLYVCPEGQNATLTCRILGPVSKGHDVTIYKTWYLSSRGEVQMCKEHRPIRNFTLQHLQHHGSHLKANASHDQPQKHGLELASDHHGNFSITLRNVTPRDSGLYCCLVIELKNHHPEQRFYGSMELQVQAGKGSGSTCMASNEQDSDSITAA

[6] = biological target: recombinant human VISTA (His-tagged) (human) (UniProt Q9H7M9); experiment: ELISA, plate coated with human VISTA; unit nM from the legend paragraph 697
[7] = biological target: recombinant mouse VISTA (His-tagged) (mouse) (UniProt Q9D659); experiment: ELISA, plate coated with mouse VISTA; unit nM from the legend paragraph 697
[8] = biological target: recombinant human VISTA (His-tagged) (human) (UniProt Q9H7M9); experiment: ELISA, plate coated with human VISTA; unit nM from the legend paragraph 698
[9] = biological target: recombinant mouse VISTA (His-tagged) (mouse) (UniProt Q9D659); experiment: ELISA, plate coated with mouse VISTA; unit nM from the legend paragraph 698
[10] = biological target: recombinant human VISTA (His-tagged) (human) (UniProt Q9H7M9); experiment: ELISA, plate coated with human VISTA; unit nM from the legend paragraph 699
[11] = biological target: recombinant mouse VISTA (His-tagged) (mouse) (UniProt Q9D659); experiment: ELISA, plate coated with mouse VISTA; unit nM from the legend paragraph 699
Fc-tagged VSIG-3 = Fc-tagged VSIG-3 (UniProt Q5DX21); experiment: BLI, 100 nM Fc-tagged VSIG-3 on anti-human Fc biosensor, VISTA as analyte from 3000 nM
[12] = biological target: human FcγRIII (CD16a) (human) (UniProt P08637); experiment: ELISA, plate coated with human CD16a (FcγRIII), detection with HRP anti-human Fc antibody
Chain of human FcγRIII (CD16a) (human) (P08637 17-208 limits assumed): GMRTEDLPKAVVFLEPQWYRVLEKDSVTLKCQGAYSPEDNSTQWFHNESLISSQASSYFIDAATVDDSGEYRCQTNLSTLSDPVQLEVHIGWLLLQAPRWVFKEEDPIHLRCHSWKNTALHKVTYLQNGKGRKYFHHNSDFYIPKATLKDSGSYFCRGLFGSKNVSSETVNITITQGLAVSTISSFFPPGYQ

MFI [1]: 0.06
Substance: Isotype (antibody)

EC50 [2]: > 33 nM
EC50 [3]: > 33 nM
EC50 [4]: > 33 nM
EC50 [5]: > 33 nM
EC50 [6]: 152 nM
EC50 [7]: 77 nM
EC50 [8]: > 200 nM
EC50 [9]: > 200 nM
EC50 [10]: 98.5 nM
EC50 [11]: > 200 nM
Substance: Human isotype (antibody)

Kd (Fc-tagged VSIG-3): 5.28 µM
Substance: recombinant human VISTA (His-tagged) (from UniProt Q9H7M9 33-194) (receptor)

EC50 (read off the curve) [12]: 1 nM
Substance: hIgG1 Isotype Control (antibody)
